Measured values as given in patent publication US20230129812A1, “COMPOSITIONS AND METHODS FOR TREATING PULMONARY HYPERTENSION” (Acceleron Pharma Inc., priority 2020, published 2023).

Tests used:
GDF11 [1] = molecular target: T1, GDF11 (Homo sapiens, UniProt O95390); assay: Biacore ligand affinity of ActRIIB-hFc forms, steady-state affinity fit; type: binding
T1 sequence (O95390 299-407): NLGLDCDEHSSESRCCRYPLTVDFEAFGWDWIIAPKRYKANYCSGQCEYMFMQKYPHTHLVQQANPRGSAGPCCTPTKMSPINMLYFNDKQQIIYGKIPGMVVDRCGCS
Method: (§1) Affinities of several ligands for ActRIIB(25-131)-hFc and its full-length counterpart ActRIIB(20-134)-hFc were evaluated in vitro with a Biacore™ instrument, and the results are summarized in Table 8 below. Kd values were obtained by steady-state affinity fit due to very rapid association and dissociation of the complex, which prevented accurate determination of kon and koff. ActRIIB(25-131)-hFc bound, for example, activin A, activin B, and GDF11 with high affinity.
(§2) The affinity of ActRIIB variants and other ActRIIB-hFc proteins for several ligands was evaluated in vitro with a Biacore™ instrument. Kd values were obtained by steady-state affinity fit due to the very rapid association and dissociation of the complex, which prevented accurate determination of kon and koff.

activin A [2] = molecular target: T2, activin A (Homo sapiens, UniProt P08476); assay: as above; type: binding
T2 sequence (P08476 311-426): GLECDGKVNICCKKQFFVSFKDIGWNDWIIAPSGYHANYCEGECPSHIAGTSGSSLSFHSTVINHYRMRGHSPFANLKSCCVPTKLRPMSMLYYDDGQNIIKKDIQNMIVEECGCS
Method: as §1, §2

activin B [3] = molecular target: T3, activin B (Homo sapiens, UniProt P09529); assay: as above; type: binding
T3 sequence (P09529 293-407): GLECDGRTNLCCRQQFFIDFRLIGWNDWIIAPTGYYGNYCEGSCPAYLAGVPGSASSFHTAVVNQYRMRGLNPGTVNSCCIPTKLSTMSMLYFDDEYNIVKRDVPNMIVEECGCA
Method: as §1, §2

GDF8 [4] = molecular target: T4, GDF8 (Homo sapiens, UniProt O14793); assay: Biacore ligand affinity of ActRIIB-hFc variants (Example 10); type: binding
T4 sequence (O14793 267-375): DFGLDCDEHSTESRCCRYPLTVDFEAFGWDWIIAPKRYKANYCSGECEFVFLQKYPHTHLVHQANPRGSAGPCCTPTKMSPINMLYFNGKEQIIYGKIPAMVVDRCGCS
Method: as §2

BMP10 [5] = molecular target: T5, BMP10 (Homo sapiens, UniProt O95393); assay: as above; type: binding
T5 sequence (O95393 317-424): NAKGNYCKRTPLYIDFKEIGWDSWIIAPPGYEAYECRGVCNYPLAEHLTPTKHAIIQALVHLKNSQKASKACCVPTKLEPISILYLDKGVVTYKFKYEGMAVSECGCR
Method: as §2

BMP6 [6] = molecular target: T6, BMP6 (Homo sapiens, UniProt P22004); assay: as above; type: binding
T6 sequence (P22004 375-513): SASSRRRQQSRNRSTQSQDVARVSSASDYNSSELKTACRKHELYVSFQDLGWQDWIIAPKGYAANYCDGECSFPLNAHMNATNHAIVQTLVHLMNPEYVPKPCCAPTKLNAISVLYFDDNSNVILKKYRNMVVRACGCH
Method: as §2

GDF8 [7] = molecular target: T4, GDF8; assay: Biacore ligand binding profile, ALK4-Fc:ActRIIB-Fc heterodimer vs homodimers, anti-Fc capture (Example 13, Table 13); conditions: ligand GDF8, Table 13
Method: (§3) A Biacore™-based binding assay was used to compare ligand binding selectivity of the ALK4-Fc:ActRIIB-Fc heterodimeric complex described above with that of ActRIIB-Fc and ALK4-Fc homodimer complexes. The ALK4-Fc:ActRIeB-Fc heterodimer, […], and ALK4-Fc homodimer were independently captured onto the system using an anti-Fc antibody. Ligands were injected and allowed to flow over the captured receptor protein. Results are summarized in Table 13 below, in which ligand off-rates (kd) most indicative of effective polypeptides are denoted in bold.

GDF11 [8] = molecular target: T1, GDF11; assay: as above; conditions: ligand GDF11, Table 13
Method: as §3

activin A [9] = molecular target: T2, activin A; assay: as above; conditions: ligand Activin A, Table 13
Method: as §3

activin B [10] = molecular target: T3, activin B; assay: as above; conditions: ligand Activin B, Table 13
Method: as §3

BMP7 = molecular target: T7, BMP7 (Homo sapiens, UniProt P18075); assay: Biacore ligand binding profile, ActRIIA-Fc:ALK4-Fc heterodimer vs homodimers, anti-Fc capture (Example 17, Table 14); conditions: ligand BMP7, Table 14
T7 sequence (P18075 293-431): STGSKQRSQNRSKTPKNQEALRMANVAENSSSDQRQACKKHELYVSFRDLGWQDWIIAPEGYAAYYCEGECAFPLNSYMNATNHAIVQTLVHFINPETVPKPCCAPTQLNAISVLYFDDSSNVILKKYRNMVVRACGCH
Method: (§4) A Biacore™-based binding assay was used to compare ligand binding selectivity of the ActRIIA-Fc:ALK4-Fc heterodimeric complex described above with that of ActRIIA-Fc and ALK4-Fc homodimeric complexes. The ActRIIA-Fc:ALK4-Fc heterodimer, ActRIIA-Fc homodimer, and ALK4-Fc homodimer were independently captured onto the system using an anti-Fc antibody. Ligands were injected and allowed to flow over the captured receptor protein. Results are summarized in Table 14 below, in which ligand off-rates (kd) most indicative of effective ligand traps are denoted in bold.

GDF8 [11] = molecular target: T4, GDF8; assay: as above; conditions: ligand GDF8, Table 14
Method: as §4

BMP10 [12] = molecular target: T5, BMP10; assay: as above; conditions: ligand BMP10, Table 14
Method: as §4

GDF11 [13] = molecular target: T1, GDF11; assay: as above; conditions: ligand GDF11, Table 14
Method: as §4

activin A [14] = molecular target: T2, activin A; assay: as above; conditions: ligand Activin A, Table 14
Method: as §4

BMP6 [15] = molecular target: T6, BMP6; assay: as above; conditions: ligand BMP6, Table 14
Method: as §4

activin AB = molecular target: T8, activin AB (Homo sapiens, UniProt P08476+P09529); assay: as above; conditions: ligand Activin AB, Table 14
T8 sequence (P08476 311-426): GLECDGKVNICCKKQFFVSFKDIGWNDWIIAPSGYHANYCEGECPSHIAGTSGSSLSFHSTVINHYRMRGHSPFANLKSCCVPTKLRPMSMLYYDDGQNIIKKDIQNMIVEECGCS
T8 sequence (P09529 293-407): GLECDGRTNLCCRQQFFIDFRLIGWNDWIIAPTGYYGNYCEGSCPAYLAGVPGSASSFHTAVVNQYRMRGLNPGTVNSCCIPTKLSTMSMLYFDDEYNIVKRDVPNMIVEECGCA
Method: as §4

activin AC = molecular target: T9, activin AC (Homo sapiens, UniProt P08476+P55103); assay: as above; conditions: ligand Activin AC, Table 14
T9 sequence (P08476 311-426): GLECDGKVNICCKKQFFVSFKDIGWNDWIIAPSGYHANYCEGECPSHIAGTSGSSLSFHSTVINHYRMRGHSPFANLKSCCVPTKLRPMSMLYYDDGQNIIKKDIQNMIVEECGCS
T9 sequence (P55103 237-352): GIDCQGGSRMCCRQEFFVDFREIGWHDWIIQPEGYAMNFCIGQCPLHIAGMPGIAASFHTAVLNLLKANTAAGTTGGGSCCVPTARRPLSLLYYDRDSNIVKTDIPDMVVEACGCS
Method: as §4

activin B [16] = molecular target: T3, activin B; assay: as above; conditions: ligand Activin B, Table 14
Method: as §4

B1: ActRIIB(L79D 25-131)-hFc: truncated ActRIIB extracellular domain (residues 25-131) with L79D substitution fused to human Fc (protein)
chain: ETRECIYYNANWELERTNQSGLERCEGEQDKRLHCYASWRNSSGTIELVKKGCWDDDFNCYDRQECVATEENPQVYFCCCEGNFCNERFTHLPEAGGPEVTYEPPPTGGGTHTCPPCPAPELLGGPSVFLFPPKPKDTLMISRTPRVTCVVVDVSHEDPEVKFNWYVDGVEVHNAKTKPREEQYNSTYRVVSVLTVLHQDWLNGKEYKCKVSNKALPAPIEKTISKAKGQPREPQVYTLPPSREEMTKNQVSLTCLVKGFYPSDIAVEWESNGQPENNYKTTPPVLDSDGSFFLYSKLTVDKSRWQQGNVFSCSVMHEALHNHYTQKSLSLSPGK
GDF11 binding (GDF11 [1]; Biacore): nearly full retention of GDF11 binding
Kd (GDF11 [1]; Table 12, Kd by steady-state affinity fit, read-out: GDF11 (Kd e−11)): 0.074 nM
activin A binding (activin A [2]; Biacore): pronounced loss of activin A binding
Kd (activin A [2]; Table 12, Kd by steady-state affinity fit, read-out: Activin A (Kd e−11)): 22.9 nM
activin B binding (activin B [3]; Biacore): partial loss of activin B binding
Kd (activin B [3]; Table 12, Kd by steady-state affinity fit, read-out: Activin B (Kd e−11)): 0.621 nM
GDF8 binding (GDF8 [4]): strong to intermediate binding
BMP10 binding (BMP10 [5]): strong to intermediate binding
BMP6 binding (BMP6 [6]): strong to intermediate binding

B2: ALK4-Fc homodimer: ALK4-Fc homodimer complex used as comparator in Examples 13 and 17 (protein)
chain: SGPRGVQALLCACTSCLQANYTCETDGACMVSIFNLDGMEHHVRTCIPKVELVPAGKPFYCLSSEDLRNTHCCYTDYCNRIDLRVPSGHLKEPEHPSMWGPVE
modifications: left off: a dimerising Fc or GST
Kd (GDF8 [7]): 15 nM
ka (GDF8 [7]): 130000 M⁻¹ s⁻¹
kd (GDF8 [7]): 0.0019 s⁻¹
Kd (GDF11 [8]): 0.27 nM
ka (GDF11 [8]): 5e+06 M⁻¹ s⁻¹
kd (GDF11 [8]): 0.0048 s⁻¹
ka (activin A [9]): 580000 M⁻¹ s⁻¹
kd (activin A [9]): 0.012 s⁻¹
KD (activin B [10]): No binding
KD (BMP7): No binding
Kd (GDF8 [11]): 15 nM
ka (GDF8 [11]): 130000 M⁻¹ s⁻¹
kd (GDF8 [11]): 0.0019 s⁻¹
KD (BMP10 [12]): No binding
ka (GDF11 [13]): 5e+06 M⁻¹ s⁻¹
kd (GDF11 [13]): 0.0048 s⁻¹
ka (activin A [14]): 580000 M⁻¹ s⁻¹
kd (activin A [14]): 0.012 s⁻¹
KD (BMP6 [15]): No binding
ka (activin AB): 1.8e+06 M⁻¹ s⁻¹
kd (activin AB): 0.0036 s⁻¹
KD (activin AC): No binding
KD (activin B [16]): No binding
